For three molecules, fold reduction of the affinity with Aurodox against EF-Tu•GDP, binding result and Kd results are on record in article PMC4624332 (Cell, 2015).

Assay [1] has as its target Tse6_(265-CT) (P. aeruginosa) (UniProt Q9I739). In words: ITC. On the technique in general: ITC needs no label: the signal is the heat of the interaction.
The target of assay [2] is C-terminally octa-histidine-tagged Tse6 (full-length toxin) (P. aeruginosa, UniProt Q9I739 1-430). Put plainly: negative-stain electron microscopy.
The target in assay [3] is EF-Tu^EC•GDP (E. coli EF-Tu, GDP-bound), purified for ITC (E. coli, UniProt P0CE47 2-393). In words: ITC.
For assay [4], the target named is EF-Tu^PA•GDP (P. aeruginosa EF-Tu, GDP-bound), purified (P. aeruginosa, UniProt P09591 1-397). Put plainly: ITC.
Sequence of EF-Tu^PA•GDP (P. aeruginosa EF-Tu, GDP-bound), purified (P09591 whole entry): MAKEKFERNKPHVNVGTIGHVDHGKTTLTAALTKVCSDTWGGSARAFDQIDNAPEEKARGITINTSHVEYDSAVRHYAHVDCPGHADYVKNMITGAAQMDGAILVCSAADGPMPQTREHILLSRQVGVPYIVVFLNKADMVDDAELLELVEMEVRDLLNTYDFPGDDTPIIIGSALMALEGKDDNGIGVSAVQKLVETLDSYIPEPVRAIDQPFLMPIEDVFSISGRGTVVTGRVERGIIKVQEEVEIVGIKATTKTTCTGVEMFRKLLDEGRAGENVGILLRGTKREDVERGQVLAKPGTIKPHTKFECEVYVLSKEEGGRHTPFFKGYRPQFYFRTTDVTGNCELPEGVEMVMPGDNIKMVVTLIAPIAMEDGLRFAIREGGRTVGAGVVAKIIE

Sequence of EF-Tu^EC•GDP (E. coli EF-Tu, GDP-bound), purified for ITC (P0CE47 2-393): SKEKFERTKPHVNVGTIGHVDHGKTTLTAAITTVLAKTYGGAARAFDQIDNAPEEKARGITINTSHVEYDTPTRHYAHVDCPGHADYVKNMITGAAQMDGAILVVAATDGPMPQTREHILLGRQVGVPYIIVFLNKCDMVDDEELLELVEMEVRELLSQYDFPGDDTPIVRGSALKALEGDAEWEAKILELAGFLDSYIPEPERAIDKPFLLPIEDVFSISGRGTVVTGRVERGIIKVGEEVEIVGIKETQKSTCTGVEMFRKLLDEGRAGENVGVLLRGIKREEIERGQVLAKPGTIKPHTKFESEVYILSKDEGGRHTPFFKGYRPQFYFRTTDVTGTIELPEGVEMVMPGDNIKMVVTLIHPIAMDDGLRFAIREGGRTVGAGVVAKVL

“EF-Tu with the antibiotic Aurodox (locked into its GTP-bound conformation) (from UniProt P09591 1-397) (natural protein)” had a fold reduction of the affinity with Aurodox against EF-Tu•GDP in assay [1] of 10 fold.

B1: EagT6, recombinant, in the purified Tse6 complex (natural protein)
chain: MTLYRLHEADLEIPDAWQDQSINIFKLPASGPAREASFVISRDASQGDAPFADYVARQLENAEKQLPGFKLHKRWDINIHGHAAVLLDYQWQREGRDLMLRQVFIERRPAVLITTLTTTPADLPHHEPAWKQAMQTLVPRPTPS
Regarding B1, the binding result in assay [2] was “binds”.

B2: Tse6_(265-CT) (domain or fragment)
chain: QRRAYLNNKFGRSGNLDHDINYRGNRETAAKFFKSKDIDPADAESYMNGLDFNHPVRVETLAPGKNLWQYQSPGAPQGNWYTLSPRVQPTELGINPMGTNRAANTIEPKVLNSYRTTQKVEVLRSTAAPTDDFWSVKGQSYPAKGGAQQLFSNEKGSFGLLPREGS
Broadly, the Kd is a measure of binding affinity in units of concentration. A low value points to tighter binding. B2: the values for the Kd in assay [3] and in assay [4] were 81 nM and 23 nM, respectively.
